Measured values as given in PMC2583361 (Critical reviews in biochemistry and molecular biology, 2008).
Like-named read-outs stand apart in the source and are kept apart here.

Legend:
Test in all cases: ITC
[1] = biological target: T1, Escherichia coli single-stranded DNA binding protein (SSB) (E. coli, UniProt P0AGE0 1-178)
[2] = biological target: T1, Escherichia coli single-stranded DNA …; remark: listed apart in the source
[3] = biological target: T1, Escherichia coli single-stranded DNA …; remark: listed apart in the source
[4] = biological target: T1, Escherichia coli single-stranded DNA …; remark: listed apart in the source

T1 sequence (P0AGE0 whole entry): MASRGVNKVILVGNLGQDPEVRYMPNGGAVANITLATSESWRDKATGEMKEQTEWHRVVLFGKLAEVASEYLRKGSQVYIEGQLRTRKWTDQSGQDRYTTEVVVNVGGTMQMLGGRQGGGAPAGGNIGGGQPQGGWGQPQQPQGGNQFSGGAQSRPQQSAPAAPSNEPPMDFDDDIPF

B1: PriA DNA helicase (enzyme, E. coli, UniProt P17888 1-732, looked up)
chain: MPVAHVALPVPLPRTFDYLLPEGMTVKAGCRVRVPFGKQQERIGIVVSVSDASELPLNELKAVVEVLDSEPVFTHSVWRLLLWAADYYHHPIGDVLFHALPILLRQGRPAANAPMWYWFATEQGQAVDLNSLKRSPKQQQALAALRQGKIWRDQVATLEFNDAALQALRKKGLCDLASETPEFSDWRTNYAVSGERLRLNTEQATAVGAIHSAADTFSAWLLAGVTGSGKTEVYLSVLENVLAQGKQALVMVPEIGLTPQTIARFRERFNAPVEVLHSGLNDSERLSAWLKAKNGEAAIVIGTRSALFTPFKNLGVIVIDEEHDSSYKQQEGWRYHARDLAVYRAHSEQIPIILGSATPALETLCNVQQKKYRLLRLTRRAGNARPAIQHVLDLKGQKVQAGLAPALITRMRQHLQADNQVILFLNRRGFAPALLCHDCGWIAECPRCDHYYTLHQAQHHLRCHHCDSQRPVPRQCPSCGSTHLVPVGLGTEQLEQTLAPLFPGVPISRIDRDTTSRKGALEQQLAEVHRGGARILIGTQMLAKGHHFPDVTLVALLDVDGALFSADFRSAERFAQLYTQVAGRAGRAGKQGEVVLQTHHPEHPLLQTLLYKGYDAFAEQALAERRMMQLPPWTSHVIVRAEDHNNQHAPLFLQQLRNLILSSPLADEKLWVLGPVPALAPKRGGRWRWQILLQHPSRVRLQHIINGTLALINTIPDSRKVKWVLDVDPIEG
dH [1]: -28 kcal/mol | stoichiometry N [1]: 1.7 | dH [2]: -28.7 kcal/mol | stoichiometry N [2]: 5.2 | dH [3]: -5.1 kcal/mol | stoichiometry N [3]: 3.7 | dH [4]: -6.8 kcal/mol | stoichiometry N [4]: 4.6
